# Source: article doi:10.1101/2020.07.31.231746
# Assays:
# Assay in all cases: flow cytometry on cells
# [1] = biological target: Y373, yeast surface-displayed ACE2(614) variant from sort 5 (human) (UniProt Q9BYF1)
# [2] = biological target: best-characterized ACE2(614) mutant from sort 3.1, yeast surface-displayed (human) (UniProt Q9BYF1)
# [3] = biological target: Y353, yeast surface-displayed ACE2(614) variant from sort 4 (human) (UniProt Q9BYF1)
substance,measurement,setting,value
"SARS-CoV-2 spike RBD monomer (328-533), 8XHis tag and AviTag, biotinylated (from UniProt P0DTC2 328-533) (domain or fragment)",Kd,[1],0.12 nM
same,Kd,[2],0.52 nM
same,Kd,[3],0.19 nM
